Source: patent US20050026839A1 (GENERAL HOSPITAL, published 2005)
Square brackets hold non-standard residues; d marks the D form. Ends that are not written are not given here. hArg = N=C(N)NCCCC[C@H](N)C(=O)O; Aib = CC(C)(N)C(=O)O

T1: wild-type human PTH/PTHrP receptor (hP1R-WT) (human, UniProt Q03431 27-593)
T1 construct: whole, on cells; HKRK-B28 cells express ~280,000 receptors per cell; also called PTH-1 receptor; PTH-1R
T1 sequence (looked up): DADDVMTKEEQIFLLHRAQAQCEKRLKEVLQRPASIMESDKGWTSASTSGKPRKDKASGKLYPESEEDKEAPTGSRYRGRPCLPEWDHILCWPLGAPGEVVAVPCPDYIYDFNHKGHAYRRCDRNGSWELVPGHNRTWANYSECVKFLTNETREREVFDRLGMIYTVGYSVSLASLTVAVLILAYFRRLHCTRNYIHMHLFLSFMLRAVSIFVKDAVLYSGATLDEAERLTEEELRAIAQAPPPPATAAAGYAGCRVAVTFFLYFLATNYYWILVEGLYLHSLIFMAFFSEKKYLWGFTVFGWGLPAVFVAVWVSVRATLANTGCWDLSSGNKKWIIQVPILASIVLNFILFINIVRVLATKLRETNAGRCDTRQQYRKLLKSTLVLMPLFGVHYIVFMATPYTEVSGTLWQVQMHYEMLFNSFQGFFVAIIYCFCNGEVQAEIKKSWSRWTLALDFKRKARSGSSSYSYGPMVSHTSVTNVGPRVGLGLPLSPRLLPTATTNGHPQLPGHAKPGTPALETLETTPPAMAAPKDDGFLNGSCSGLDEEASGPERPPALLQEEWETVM

B1: [Aib^13,M]PTH(1-14) (peptide)
peptide: AVAEIQLMHQ[hArg]A[Aib]W-NH2
modifications: N-terminus assumed
SMILES: CC[C@H](C)[C@H](NC(=O)[C@H](CCC(=O)O)NC(=O)[C@H](C)NC(=O)[C@@H](NC(=O)[C@H](C)N)C(C)C)C(=O)N[C@@H](CCC(N)=O)C(=O)N[C@@H](CC(C)C)C(=O)N[C@@H](CCSC)C(=O)N[C@@H](Cc1c[nH]cn1)C(=O)N[C@@H](CCC(N)=O)C(=O)N[C@@H](CCCCNC(=N)N)C(=O)N[C@@H](C)C(=O)NC(C)(C)C(=O)N[C@@H](Cc1c[nH]c2ccccc12)C(N)=O
notes: Aib scan of [M]PTH(1-14); also called 634 Aib-13
B2: [Aib^14,M]PTH(1-14) (peptide)
peptide: AVAEIQLMHQ[hArg]AK[Aib]-NH2
modifications: N-terminus assumed
SMILES: CC[C@H](C)[C@H](NC(=O)[C@H](CCC(=O)O)NC(=O)[C@H](C)NC(=O)[C@@H](NC(=O)[C@H](C)N)C(C)C)C(=O)N[C@@H](CCC(N)=O)C(=O)N[C@@H](CC(C)C)C(=O)N[C@@H](CCSC)C(=O)N[C@@H](Cc1c[nH]cn1)C(=O)N[C@@H](CCC(N)=O)C(=O)N[C@@H](CCCCNC(=N)N)C(=O)N[C@@H](C)C(=O)N[C@@H](CCCCN)C(=O)NC(C)(C)C(N)=O
notes: Aib scan of [M]PTH(1-14); Aib replaces the Trp^14 of [M]; also called 635 Aib-14
B3: [Aib^10,M]PTH(1-14) (peptide)
peptide: AVAEIQLMH[Aib][hArg]AKW-NH2
modifications: N-terminus assumed
SMILES: CC[C@H](C)[C@H](NC(=O)[C@H](CCC(=O)O)NC(=O)[C@H](C)NC(=O)[C@@H](NC(=O)[C@H](C)N)C(C)C)C(=O)N[C@@H](CCC(N)=O)C(=O)N[C@@H](CC(C)C)C(=O)N[C@@H](CCSC)C(=O)N[C@@H](Cc1c[nH]cn1)C(=O)NC(C)(C)C(=O)N[C@@H](CCCCNC(=N)N)C(=O)N[C@@H](C)C(=O)N[C@@H](CCCCN)C(=O)N[C@@H](Cc1c[nH]c2ccccc12)C(N)=O
notes: Aib scan of [M]PTH(1-14); Aib replaces the Gln^10 of [M]; also called 631 Aib-10
B4: [Aib^12,M]PTH(1-14) (peptide)
peptide: AVAEIQLMHQ[hArg][Aib]KW-NH2
modifications: N-terminus assumed
SMILES: CC[C@H](C)[C@H](NC(=O)[C@H](CCC(=O)O)NC(=O)[C@H](C)NC(=O)[C@@H](NC(=O)[C@H](C)N)C(C)C)C(=O)N[C@@H](CCC(N)=O)C(=O)N[C@@H](CC(C)C)C(=O)N[C@@H](CCSC)C(=O)N[C@@H](Cc1c[nH]cn1)C(=O)N[C@@H](CCC(N)=O)C(=O)N[C@@H](CCCCNC(=N)N)C(=O)NC(C)(C)C(=O)N[C@@H](CCCCN)C(=O)N[C@@H](Cc1c[nH]c2ccccc12)C(N)=O
notes: Aib scan of [M]PTH(1-14); Aib replaces the Ala^12 of [M]; also called 633 Aib-12
B5: [Aib^3,M]PTH(1-14) (peptide)
peptide: AV[Aib]EIQLMHQ[hArg]AKW-NH2
modifications: N-terminus assumed
SMILES: CC[C@H](C)[C@H](NC(=O)[C@H](CCC(=O)O)NC(=O)C(C)(C)NC(=O)[C@@H](NC(=O)[C@H](C)N)C(C)C)C(=O)N[C@@H](CCC(N)=O)C(=O)N[C@@H](CC(C)C)C(=O)N[C@@H](CCSC)C(=O)N[C@@H](Cc1c[nH]cn1)C(=O)N[C@@H](CCC(N)=O)C(=O)N[C@@H](CCCCNC(=N)N)C(=O)N[C@@H](C)C(=O)N[C@@H](CCCCN)C(=O)N[C@@H](Cc1c[nH]c2ccccc12)C(N)=O
notes: also called 624 Aib-3
B6: [Aib^4,M]PTH(1-14) (peptide)
peptide: AVA[Aib]IQLMHQ[hArg]AKW-NH2
modifications: N-terminus assumed
SMILES: CC[C@H](C)[C@H](NC(=O)C(C)(C)NC(=O)[C@H](C)NC(=O)[C@@H](NC(=O)[C@H](C)N)C(C)C)C(=O)N[C@@H](CCC(N)=O)C(=O)N[C@@H](CC(C)C)C(=O)N[C@@H](CCSC)C(=O)N[C@@H](Cc1c[nH]cn1)C(=O)N[C@@H](CCC(N)=O)C(=O)N[C@@H](CCCCNC(=N)N)C(=O)N[C@@H](C)C(=O)N[C@@H](CCCCN)C(=O)N[C@@H](Cc1c[nH]c2ccccc12)C(N)=O
notes: Aib scan of [M]PTH(1-14); also called 625 Aib-4
B7: [Aib^6,M]PTH(1-14) (peptide)
peptide: AVAEI[Aib]LMHQ[hArg]AKW-NH2
modifications: N-terminus assumed
SMILES: CC[C@H](C)[C@H](NC(=O)[C@H](CCC(=O)O)NC(=O)[C@H](C)NC(=O)[C@@H](NC(=O)[C@H](C)N)C(C)C)C(=O)NC(C)(C)C(=O)N[C@@H](CC(C)C)C(=O)N[C@@H](CCSC)C(=O)N[C@@H](Cc1c[nH]cn1)C(=O)N[C@@H](CCC(N)=O)C(=O)N[C@@H](CCCCNC(=N)N)C(=O)N[C@@H](C)C(=O)N[C@@H](CCCCN)C(=O)N[C@@H](Cc1c[nH]c2ccccc12)C(N)=O
notes: Aib scan of [M]PTH(1-14); also called 627 Aib-6
B8: [Aib^7,M]PTH(1-14) (peptide)
peptide: AVAEIQ[Aib]MHQ[hArg]AKW-NH2
modifications: N-terminus assumed
SMILES: CC[C@H](C)[C@H](NC(=O)[C@H](CCC(=O)O)NC(=O)[C@H](C)NC(=O)[C@@H](NC(=O)[C@H](C)N)C(C)C)C(=O)N[C@@H](CCC(N)=O)C(=O)NC(C)(C)C(=O)N[C@@H](CCSC)C(=O)N[C@@H](Cc1c[nH]cn1)C(=O)N[C@@H](CCC(N)=O)C(=O)N[C@@H](CCCCNC(=N)N)C(=O)N[C@@H](C)C(=O)N[C@@H](CCCCN)C(=O)N[C@@H](Cc1c[nH]c2ccccc12)C(N)=O
notes: Aib scan of [M]PTH(1-14); also called 628 Aib-7

Assays:
[1] = molecular target: T1, wild-type human PTH/PTHrP receptor …; test: competition binding, 125I-[M]PTH(1-21) tracer, HKRK-B28 cells
Protocol: (§1) Cells were then placed on ice, the binding medium was removed, and the monolayer was rinsed three times with 0.5 mL of cold binding buffer. The cells were subsequently lysed with 0.5 mL […] NaOH and counted for radioactivity. For each tracer and in each experiment, the non-specific binding was determined as the radioactivity that bound in the presence of the same unlabeled peptide at a concentration of 1 μM, and was ˜1% of total radioactivity added for each tracer. The maximum specific binding (B₀) was the total radioactivity bound in the absence of competing ligand, corrected for nonspecific binding, and for each tracer, ranged from 8% to 20% of the total radioactivity added. Nonlinear regression was used to calculate binding IC₅₀ values (see below). Scatchard transformations of homologous competition binding data derived from studies with 26 fmol of ¹²⁵I-[Aib^{1,3},M]PTH(1-21) were employed for estimations of apparent equilibrium dissociation constant (kDapps) and total number of ligand binding sites (Bₘₐₓ), assuming a single class of binding sites and equal affinities of the iodinated and non iodinated ligand.
Relative to the apparent binding affinity of [M]PTH(1-14), most of the Aib substitutions reduced affinity, in accordance with the corresponding effects on cAMP-signaling potency (Table 1).

[2] = molecular target: T1, wild-type human PTH/PTHrP receptor …; test: competition binding, 125I-[M]PTH(1-21) tracer, HKRK-B28 cells, 4 h at 4 C
Protocol: as §1, with “Competition Binding. Binding reactions were performed with HKRK-B28 cells or in COS-7 cells in 24-well plates. The cells were rinsed with 0.5 mL of binding buffer, and then treated successively with 100 μL binding buffer, 100 μL of binding buffer containing various amounts of unlabeled competitor ligand, and 100 μL of binding buffer containing ca. 100,000 cpm of ¹²⁵I-[M]PTH(1-21) or ¹²⁵I-[Aib^{1,3},M]PTH(1-21)} (ca. 26 fmol; final volume=300 μL). Incubations were 4 to 6 h at 4° C., at which time near equilibrium conditions were attained. Cells” for “Cells”
Peptides PTH(1-34) ([Nle^{8,21}, Tyr³⁴]PTH(1-34)amide), [M]PTH(1-14) (M = Ala^{3,12}, Gln¹⁰, Har¹¹, Trp¹⁴), and [M]PTH(1-14 analogs, or C-terminally truncated derivatives thereof, containing α-aminoisobutyric acid (Aib) substitutions at the indicated positions were functionally evaluated in HKRK-B28 cells. “M” in [Aib^{1,3}, M]PTH(1-21) = Nle⁸, Gln¹⁰, Har¹¹, Ala¹², Trp¹⁴, Arg¹⁹ and Tyr²¹. The basal cAMP values (not subtracted) were 4.0 ± 0.1 pmole/well (n = 10). Peptides were based on the rat PTH sequence and were carboxy-amidated. Competition binding analyses were performed with ¹²⁵I-[M]PTH(1-21 )amide (Ala^{1,3}) as tracer for 4 h at 4° C. Data are means (±S.E.M.) Of the number of experiments indiated (n).

[3] = molecular target: T1, wild-type human PTH/PTHrP receptor …; test: cell-based or functional assay
[4] = molecular target: T1, wild-type human PTH/PTHrP receptor …; test: cell-based or functional assay; remark: listed apart in the source

Binder	fold reduction in affinity relative to [M]PTH(1-14) [1] [fold]	IC50 [2] [µM]	cAMP EC50 [3] [µM]	cAMP EMax(obs.) [3] [pmole/well]	fold improvement in affinity relative to [M]PTH(1-14) [1] [fold]	cAMP EC50 in SaOS-2 cells [4] [µM]	cAMP EMAX(obs.) in SaOS-2 cells [4] [pmole/well]
B1	< 10	44	0.48	259	–	–	–
B2	< 10	79	0.35	273	–	–	–
B3	–	9.1	3	214	1.4	–	–
B4	< 10	15	0.44	263	–	–	–
B5	–	1.7	0.013	269	8	0.042	330
B6	> 10	148	17	221	–	–	–
B7	~3	31	230	116	–	–	–
B8	> 10	490	2.6	275	–	–	–
